According to article PMC10259489, “Identification of epigenetic modulators as determinants of nuclear size and shape” (eLife, 2023):

T1: GST-lamin A (aa 389–646), entire Ig-fold and C-terminus (human, UniProt P02545 389-646)
T1 construct: pGEX4T1 construct; also called full-length lamin A tail; source: E. coli Rosetta 2, purified (glutathione Sepharose 4B); not shown: GST, N-terminal, kept
T1 sequence (looked up): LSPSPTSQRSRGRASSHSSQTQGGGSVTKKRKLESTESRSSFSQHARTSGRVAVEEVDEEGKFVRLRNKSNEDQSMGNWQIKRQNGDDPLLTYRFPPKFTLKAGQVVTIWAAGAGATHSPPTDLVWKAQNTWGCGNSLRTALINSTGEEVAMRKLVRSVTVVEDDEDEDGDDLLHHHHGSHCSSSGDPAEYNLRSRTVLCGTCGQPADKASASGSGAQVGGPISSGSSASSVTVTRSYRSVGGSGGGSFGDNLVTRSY

T2: histone H3R8me2/K9me2 peptide (R8me2, K9me2)
T2 chain: ARTKQTARKSTGGKAPRKQ

B1: GST-lamin C (aa 389–572), C-terminal region of lamin C (domain or fragment, human, UniProt P02545-2 389-572, looked up)
chain: LSPSPTSQRSRGRASSHSSQTQGGGSVTKKRKLESTESRSSFSQHARTSGRVAVEEVDEEGKFVRLRNKSNEDQSMGNWQIKRQNGDDPLLTYRFPPKFTLKAGQVVTIWAAGAGATHSPPTDLVWKAQNTWGCGNSLRTALINSTGEEVAMRKLVRSVTVVEDDEDEDGDDLLHHHHVSGSRR
notes: pGEX4T1 construct; source: E. coli Rosetta 2, purified (glutathione Sepharose 4B); not shown: GST, N-terminal, kept
B2: GST-lamin A (506–646) (domain or fragment, human, UniProt P02545 506-646, looked up)
chain: HSPPTDLVWKAQNTWGCGNSLRTALINSTGEEVAMRKLVRSVTVVEDDEDEDGDDLLHHHHGSHCSSSGDPAEYNLRSRTVLCGTCGQPADKASASGSGAQVGGPISSGSSASSVTVTRSYRSVGGSGGGSFGDNLVTRSY
notes: detected by anti-GST; also called GST-lamin A (pACS37); source: E. coli Rosetta 2, purified (glutathione Sepharose 4B); not shown: GST, N-terminal, kept

Tests used:
[1] = biological target: T1, GST-lamin A (aa 389–646), entire …; assay: pull-down; calf thymus histone pull-down with GST-lamin A (wild type or C522A) and GST-lamin C (389–572) co-incubated, with or without DTT; conditions: both partners purified
[2] = biological target: T2, histone H3R8me2/K9me2 peptide; assay: peptide or protein array; MODified histone peptide array (Active Motif, 384 peptides spotted); 10 nM purified GST-lamin A (pACS37) in 100 mM KCl, 20 mM HEPES pH 7.5, 1 mM EDTA, 0.1 mM DTT, 10% glycerol, room temperature 1 hr; detected with anti-GST and HRP secondary, ECL; conditions: both partners purified

| Binder | binding result [1] | fold signal against H3K9me2 [2] |
| --- | --- | --- |
| B1 | binds |  |
| B2 |  | ~5 fold |
